The values that follow come from publication PMC8455617 (2021).

The Kd is a measure of binding affinity in units of concentration.

Test [1] deals with Mitochondrial citrate synthase (CS) (UniProt P00889). Kind of test: Microscale thermophoresis (MST), Monolith NT.115, nano-red excitation, MST power 40%, excitation power 80%. The note with it: 23 °C, 0.1 M potassium phosphate, no further salt stated, 0.1 M potassium phosphate at pH 6, 7 or 8 (the same buffer species at all pH values). In general terms: In MST a laser heats a spot of the sample, and binding alters the fluorescence response.

The target in test [2] is T1, citrate synthase, mitochondrial (Sus scrofa, UniProt P00889).
T1 chain: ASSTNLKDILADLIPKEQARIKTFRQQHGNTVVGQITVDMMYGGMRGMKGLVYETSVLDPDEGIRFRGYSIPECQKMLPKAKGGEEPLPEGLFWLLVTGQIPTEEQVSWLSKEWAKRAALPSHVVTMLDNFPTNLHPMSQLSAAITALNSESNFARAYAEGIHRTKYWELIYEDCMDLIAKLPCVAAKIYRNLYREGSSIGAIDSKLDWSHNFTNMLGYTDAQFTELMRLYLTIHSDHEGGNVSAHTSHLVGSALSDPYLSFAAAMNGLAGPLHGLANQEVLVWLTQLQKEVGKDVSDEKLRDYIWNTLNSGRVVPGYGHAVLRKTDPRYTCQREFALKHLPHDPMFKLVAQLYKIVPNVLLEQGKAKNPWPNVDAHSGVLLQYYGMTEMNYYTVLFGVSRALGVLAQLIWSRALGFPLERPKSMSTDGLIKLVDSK
The test can be described thus: MST (pH 7).

The target in test [3] is T1, citrate synthase, mitochondrial. Kind of test: MST (pH 6).
Test [4] has the same target. Kind of test: MST.

In the case of “Mitochondrial malate dehydrogenase (MDH), fluorescently labelled”, the Kd is recorded as 0.68 ± 0.05 µM in test [1] (pH 6), 1.60 ± 0.45 µM in test [1] (pH 7) and 2.29 ± 0.46 µM in test [1] (pH 8).

B1: malate dehydrogenase, mitochondrial (protein)
chain: AKVAVLGASGGIGQPLSLLLKNSPLVSRLTLYDIAHTPGVAADLSHIETRATVKGYLGPEQLPDCLKGCDVVVIPAGVPRKPGMTRDDLFNTNATIVATLTAACAQHCPDAMICIISNPVNSTIPITAEVFKKHGVYNPNKIFGVTTLDIVRANAFVAELKGLDPARVSVPVIGGHAGKTIIPLISQCTPKVDFPQDQLSTLTGRIQEAGTEVVKAKAGAGSATLSMAYAGARFVFSLVDAMNGKEGVVECSFVKSQETDCPYFSTPLLLGKKGIEKNLGIGKISPFEEKMIAEAIPELKASIKKGEEFVKNMK
For B1, the dissociation constant (Kd) in test [2] was 1600 nM; in test [3], 680 nM; in test [4] it was 2290 nM.

B2: malate dehydrogenase, mitochondrial (protein)
chain: B1 chain
modifications: 10 mM NAD+
Consider B2, for which binding in test [4] was put at a Kd of 890 nM.

B3: malate dehydrogenase, mitochondrial (protein)
chain: B1 chain
modifications: 10 mM fumarate
Consider B3, for which the Kd in test [4] is 1580 nM.

B4: malate dehydrogenase, mitochondrial (protein)
chain: B1 chain
modifications: 10 mM acetyl-CoA
The molecule B4 showed a Kd in test [4] of 1100 nM.
